Measured values: US11813280B2, “Reducing beta-catenin and IDO expression to potentiate immunotherapy” (Dicerna Pharmaceuticals, Inc., priority 2018, dated 2023)
“Also recorded” adds a separate entry of the source.

Assays:
IDO1 = IDO1 (Homo sapiens, UniProt P14902); settings: cited from earlier work
advanced melanoma = settings: combined with pembrolizumab; Phase II study; cited from earlier work
IDO2 = biological target: T1, IDO2 (Homo sapiens, UniProt Q6ZQW0); settings: Pendergast et al., Cancer Research, 2017; cited from earlier work
T1 sequence (Q6ZQW0 1-407): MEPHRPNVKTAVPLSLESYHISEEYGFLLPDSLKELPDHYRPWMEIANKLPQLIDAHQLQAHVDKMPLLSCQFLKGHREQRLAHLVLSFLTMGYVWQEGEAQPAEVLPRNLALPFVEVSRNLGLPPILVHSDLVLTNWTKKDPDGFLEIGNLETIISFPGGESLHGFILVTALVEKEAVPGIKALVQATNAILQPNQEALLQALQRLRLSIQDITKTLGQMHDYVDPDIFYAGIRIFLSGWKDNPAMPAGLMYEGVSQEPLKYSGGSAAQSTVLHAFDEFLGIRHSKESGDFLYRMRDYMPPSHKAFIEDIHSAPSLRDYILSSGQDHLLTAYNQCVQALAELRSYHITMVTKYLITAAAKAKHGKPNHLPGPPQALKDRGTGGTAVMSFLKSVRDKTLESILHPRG

[1] = system: metastatic or recurrent squamous cell carcinoma of the head and neck, advanced urothelial cell carcinoma, and advanced renal cell carcinoma; settings: epacadostat combination; cited from earlier work
4T1 tumors [2] = test: 4T1 tumor growth study; type: in vivo, Balb/C mice; settings: for anti-tumor efficacy (tumor volume): IDOi orally 100 mg/kg per dose twice daily days 4 and 6, BCAT1 iv 3 mg/kg days 5 and 6, anti-PD-1 antibody ip 5 mg/kg days 7 and 8, single, double or triple agents
Description: (§1) 6-8-week-old immunocompetent mice (C57BL/6 or Balb/C) were injected subcutaneously with 1.5×10^6B16F10 or 1.5×10^6 4T1 tumor cells under the right shoulder. Tumor volume was measured every 2-3 days a week to monitor tumor growth. Dosing was initiated when the tumors reached about 150-200 mm^3. […] BCAT1 formulated LNP or Placebo (scrambled CTNNB1 dsRNAi) formulated LNP was given intravenously via lateral tail vein at a total volume of 10 ml/kg. Immunotherapy treatments (anti-PD-1 antibody) were given intraperitoneally at a volume of 10 ml/kg.
(§2) Mouse cell lines B16F10 and 4T1 cells were obtained from ATCC (Manassas, Va.) and grown in RPMI/DMEM medium supplemented with 10% FBS. B16F10 cells is a murine melanoma cell line with no Wnt activation or IDO1 activation. 4T1 is a murine breast cell line with Wnt activation and constitutive activation of IDO1.
In another study, 4T1 tumor cells were implanted in Balb/C mice and 4 days post-implant, the mice were randomized into two groups and treated with placebo or BCAT1. This dosing cycle was then repeated on days 9 and 10. Tumor growth was monitored by measuring the tumor sizes over the course of the treatment period. […] FIG. 1C.
(§3) Tumors were collected 48 hours after the last dose and were subjected to immunohistochemistry to look at β-catenin, CD8 and IDO1 levels. […] FIG. 3B. FIG. 3B. […] Tumor growth was monitored by measuring the tumor sizes over the course of the treatment period. […] FIG. 3C.

4T1 tumors [3] = test: Immunohistochemistry of 4T1 tumors for β-catenin, CD8 and IDO1; type: in vivo, Balb/C mice; settings: IDOi orally twice daily 100 mg/kg per dose days 6 and 8, tumors 48 hours after last dose, vs vehicle
MMTV-Wnt tumors [4] = test: Immunohistochemistry of MMTV-Wnt tumors for β-catenin, CD8 and IDO1; type: in vivo, mice; settings: tumors 24 hours after last dose
Description: (§4) In the MMTV-Wnt mouse model, mammary gland specific overexpression of Wnt1 with MMTV-LTR leads to spontaneous breast tumors with activated Wnt/β-catenin signaling. MMTV-Wnt mammary tumors spontaneously grow in mice in 3-6 months from the time of birth with Wnt pathway activation.
To see the effect of β-catenin inhibition on T cell infiltration and IDO1 levels in spontaneous tumors, the MMTV-Wnt1 model was used. The tumors were collected 24 hours after the last dose and subjected to immunohistochemistry to determine β-catenin, CD8, and IDO1 levels.
Tumors were collected 24 hours after the last dose and subjected to immunohistochemistry to determine β-catenin, CD8 and IDO1 levels.

melanoma = settings: epacadostat in combination with the PD-1 inhibitors pembrolizumab and nivolumab; Phase I/II; cited from earlier work
B16F10 tumors [5] = test: B16F10 tumor growth study; type: in vivo, C57BL/6 mice
Description: as §1, §2
In a similar study, B16F10 tumor cells were implanted in C57BL/6 mice and at day 5 post-implant, the mice were randomized into two groups and treated with placebo or BCAT1. This dosing cycle was then repeated on days 11 and 12. Tumor growth was monitored by measuring the tumor sizes over the course of the treatment period. […] FIG. 6C.
Tumor growth was monitored by measuring the tumor sizes over the course of the treatment period. […] FIG. 8C. […]

B16F10 tumors [6] = test: Immunohistochemistry of B16F10 tumors for β-catenin, CD8 and IDO1; type: in vivo, C57BL/6 mice; settings: IDOi orally twice daily 100 mg/kg per dose days 7 and 9, tumors 48 hours after last dose, vs vehicle
[7] = Siu et al., AACR abstract CT116, 2017; cited from earlier work
multiple tumor types = test: Delivery of LNP formulated BCAT1 to tumors in models; type: in vivo
Source text: The BCAT1 construct was formulated in EnCore lipid nanoparticles (LNP).

B16F10 tumors [8] = test: Immunohistochemistry of B16F10 tumors for β-catenin, CD8 and IDO1; type: in vivo, C57BL/6 mice; settings: BCAT1 3 mg/kg days 6, 7, 12, 13 post-implant, tumors 48 hours after last dose, vs placebo
Description: as §1, §2
C57BL/6 mice were implanted with B16F10 tumors. At six days post B16F10 tumor cell implantation, with the average tumor size of 200 mm^3, mice were sorted into two groups and were treated with either placebo or BCAT1 at 3 mg/kg on days 6 and 7 post-implant and again on days 12 and 13 post-implant, as shown in FIG. 6A. 48 hours after the last dose, tumors were collected and assayed by immunohistochemistry for β-catenin, CD8 and IDO1 protein levels. […] FIG. 6B.
Tumors were collected 48 hours after the last dose and were subjected to immunohistochemistry to analyze β-catenin, CD8 and IDO1 levels. […] FIG. 8B.

4T1 tumors [9] = test: Immunohistochemistry of 4T1 tumors for β-catenin, CD8 and IDO1; type: in vivo, Balb/C mice; settings: BCAT1 3 mg/kg days 6, 7, 12, 13 post-implant, tumors 48 hours after last dose, vs placebo
Description: as §1, §2
Balb/C mice were implanted with 4T1 tumors. At six days post 4T1 tumor cell implantation, with the average tumor size of 150-200 mm^3, mice were sorted into two groups and were treated with either placebo or BCAT1 at 3 mg/kg on days 6 and 7 and days 12 and 13 post-implant, as shown in FIG. 1A. 48 hours after the last dose, tumors were collected and assayed by immunohistochemistry for β-catenin, CD8 and IDO1 protein levels.
as §3

MMTV-Wnt tumors [10] = test: MMTV-Wnt tumor growth study; type: in vivo, mice
Description: as §4
In another study, MMTV-Wnt tumor-bearing mice were treated with BCAT1 at 3 mg/kg on study days 1, 2, 6, and 7 and tumor growth was monitored.

4T1 tumors [11] = test: Flow cytometry of surface markers in 4T1 tumors; type: in vivo, Balb/C mice; settings: BCAT1 3 mg/kg days 6, 7, 12, 13, tumors 24 hours after last dose, vs PBS
Description: In another similar study, mice bearing 4T1 tumors were treated with PBS or BCAT1 at 3 mg/kg on days 6 and 7 and days 12 and 13 post-implant, as shown in FIG. 2A. Tumors were collected 24 hours after the last dose and subjected to flow cytometry to measure surface markers on single-cell suspensions prepared from the extracted tumors. […] FIG. 2B. […] FIG. 2B. No effect was observed on the immunosuppressive MDSC cells. FIG. 2B.

B16F10 tumors [12] = test: Flow cytometry of immune cell infiltrate in B16F10 tumors; type: in vivo, C57BL/6 mice; settings: BCAT1 3 mg/kg days 6, 7, 12, 13, tumors 24 hours after last dose
Description: A similar study was run to monitor the levels of immune cell infiltrate after two rounds of BCAT1 treatment. B16F10 tumors were treated with PBS, placebo, or BCAT1 at 3 mg/kg on days 6 and 7 post-implant and again on days 12 and 13 post-implant, as shown in FIG. 7A. Tumors were collected 24 hours after the last dose and were subjected to flow cytometry. […] The MDSC cell population was not altered. FIG. 7B.

[13] = IDOi 30 mg/kg per dose twice a day for 3 consecutive days
[14] = BCAT1 5 mg/kg per dose study days 1, 2, 3, 5 mg/kg

Chain of IDO1 (P14902 whole entry, species assumed): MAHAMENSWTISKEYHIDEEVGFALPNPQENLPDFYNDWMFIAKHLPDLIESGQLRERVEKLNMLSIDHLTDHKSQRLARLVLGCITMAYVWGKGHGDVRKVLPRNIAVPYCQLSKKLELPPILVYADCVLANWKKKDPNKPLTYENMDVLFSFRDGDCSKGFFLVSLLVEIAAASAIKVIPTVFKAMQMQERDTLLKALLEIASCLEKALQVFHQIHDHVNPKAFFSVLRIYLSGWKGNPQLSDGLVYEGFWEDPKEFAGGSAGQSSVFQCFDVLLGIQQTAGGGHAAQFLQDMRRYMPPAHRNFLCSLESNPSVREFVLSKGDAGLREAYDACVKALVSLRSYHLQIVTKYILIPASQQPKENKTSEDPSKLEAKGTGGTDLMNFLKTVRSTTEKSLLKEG

## O=C1CC(c2c[nH]c3ccc(F)cc23)C(=O)N1 (centres unmarked) [PF-06840003]
IDO1
  enzymes targeted / inhibited (IDO1, TDO): selectively target IDO1

## Cn1cc(C[C@@H](N)C(=O)O)c2ccccc21 [indoximod, 1-methyl-D-tryptophan]
Advanced melanoma
  efficacy in patients with advanced melanoma: shown efficacy
IDO2
  inhibition of IDO2: indirectly inhibit IDO2

## NS(=O)(=O)NCCNc1nonc1C(=NO)Nc1ccc(F)c(Br)c1 [IDOi, epacadostat]
[1]
  efficacy in other tumors: shown efficacy
4T1 tumors [2]; IDOi alone twice daily at 100 mg/kg per day on days 6 and 8 post-implant, 100 mg/kg/day
  tumor growth as compared to placebo: tumor growth inhibition; also recorded: inhibits tumor growth
4T1 tumors [2]
  anti-tumor efficacy (tumor volume): modest anti-tumor efficacy
4T1 tumors [3]
  CD8 levels / CD8 T-cell infiltration (immunohistochemistry): only modestly altered; also recorded: increases
  IDO1 levels (immunohistochemistry): reduced the IDO1 levels almost completely; also recorded: decreases
  β-catenin levels (immunohistochemistry): only modestly altered; also recorded: decreases
MMTV-Wnt tumors [4]; [13]
  CD8 levels (immunohistochemistry): increases
  IDO1 levels (immunohistochemistry): reduced the IDO1 levels almost completely; also recorded: reduces
  β-catenin levels (immunohistochemistry): increases
melanoma
  clinical results in patients with melanoma: positive early results
B16F10 tumors [5]; IDOi twice daily 100 mg/kg per dose days 7 and 9, 100 mg/kg
  tumor growth inhibition vs vehicle: did not result in any significant tumor growth inhibition; also recorded: does not significantly inhibit tumor growth
B16F10 tumors [6]
  CD8 levels / CD8 T-cell infiltration (immunohistochemistry): increases
  IDO1 levels (immunohistochemistry): reduced the IDO1 levels almost completely; also recorded: decreases
  β-catenin levels (immunohistochemistry): decreases

## C[C@@H](C(=O)Nc1ccc(Cl)cc1)C1CCC(c2ccnc3ccc(F)cc23)CC1 (some centres unmarked) [BMS-986205]
[7]
  tolerability in patients with advanced cancers: safely tolerated

B1: BCAT1: nucleic acid inhibitor molecule targeting the β-catenin gene; sense strand SEQ ID NO:1, antisense strand SEQ ID NO:2; formulated in EnCore lipid nanoparticles (nucleic acid)
sense: AGAAUACAAAUGAUGUAGAAACAGCC
antisense: UAGCUAUCGTGGCUGUUUCUACAUCAUUUGUAUUCUGC
modifications: formulated in lipid nanoparticles, chemistry not given here
Multiple tumor types; HCT116, DLD1, HL60
  Delivery of BCAT1 to Various Tumor Types: Negative: HCT116, DLD1, HL60
Multiple tumor types; LNP formulated BCAT1, tumor types of Table I (subcutaneous, orthotopic, disseminated, metastatic xenograft, PDX, GEM)
  Delivery of BCAT1 to Various Tumor Types: effectively deliver the nucleic acid payload to multiple tumor types
B16F10 tumors [8]
  CD8 protein levels / CD8 T-cell infiltration (immunohistochemistry): increases
  IDO1 protein levels (immunohistochemistry): decreased; also recorded: reduces
  β-catenin protein levels (immunohistochemistry): decreases
4T1 tumors [2]; BCAT1 alone 3 mg/kg days 4, 5, 9, 10, vs placebo
  tumor growth inhibition: about 40%
4T1 tumors [2]
  anti-tumor efficacy (tumor volume): modest anti-tumor efficacy
4T1 tumors [2]; two cycles of BCAT1 treatment
  tumor growth as compared to placebo: inhibits tumor growth
4T1 tumors [9]
  CD8 protein levels / CD8 T-cell infiltration (immunohistochemistry): increases
  IDO1 protein levels (immunohistochemistry): did not reduce the IDO1 levels significantly; also recorded: does not significantly reduce
  β-catenin protein levels (immunohistochemistry): decreases
MMTV-Wnt tumors [10]; BCAT1 alone 3 mg/kg study days 1, 2, 6, 7
  tumor growth inhibition: about 50%
MMTV-Wnt tumors [10]; two cycles of BCAT1 treatment
  tumor growth as compared to placebo: inhibits tumor growth
MMTV-Wnt tumors [4]; [14]
  CD8 levels / CD8 T-cell infiltration (immunohistochemistry): increases
  IDO1 levels (immunohistochemistry): unchanged; also recorded: does not significantly reduce
  β-catenin levels (immunohistochemistry): decreases
4T1 tumors [11]
  LAG-3 checkpoint, flow cytometry: significant increases
  MDSC cells, flow cytometry: No effect; also recorded: does not significantly alter
  PD-1 checkpoint, flow cytometry: significant increases
  Regulatory T cells (Tregs), flow cytometry: significantly increased; also recorded: increases
  Tim-3 checkpoint, flow cytometry: significant increases
  cytotoxic T-cells (CD8+), flow cytometry: significant increases
B16F10 tumors [12]
  CD8 T cells, flow cytometry: elevated; also recorded: increases
  LAG-3 checkpoint, flow cytometry: elevated; also recorded: increases
  MDSC cell population, flow cytometry: not altered; also recorded: does not significantly alter
  PD-1 checkpoint, flow cytometry: elevated; also recorded: increases
  Tim-3 checkpoint, flow cytometry: elevated; also recorded: increases
B16F10 tumors [12]; as compared to PBS
  level of Tregs, flow cytometry: did not significantly change; also recorded: does not significantly alter
B16F10 tumors [5]; BCAT1 single agent 3 mg/kg days 5, 6, 11, 12
  tumor growth as compared to placebo: did not significantly inhibit tumor growth; also recorded: does not significantly inhibit tumor growth
